Experimental data published in the RNAGym collection of RNA variant scans (doi:10.7554/elife.90254).

B1: LINE1-full (parent)
chain: UACGUAGGUGGUUUUCCCCUGAUAGUGCUAAGGGGGCCUGGAAGUUUGGACUGGGCAGAGCUCAACACAGCGUGGCAAAGUGGCUGUGGCUAGACUGCCUCUCUGGAUUCCUCGUCACUCAGCAGGGCAUCUCUGAGAGAAAUGCC

Variants of: B1
Experiment: self-cleavage, relative activity (ratio to wild type); higher = more cleavage; in vitro, sequencing; the parent is a self-cleaving ribozyme

Row | Variant | self-cleavage
1 | U26C G74U | 1.42
2 | U26C G74A | 1.17
3 | U26A U119C | 0.97
4 | U26A A67U | 0.03
5 | A24G A59U | 1.17
6 | U26A C84U | 0.02
7 | U26A A30U | 1.56
8 | U26C A64U | 0.61
9 | U26A A129U | 1.06
10 | U26C C101U | 1.46
11 | U26A A136G | 1.57
12 | G25A A94G | 0.21
13 | U23C U143C | 1.41
14 | U26C C123U | 1.06
15 | A24G A69G | 0.92
16 | U26C U52A | 1.53
17 | G25A U39A | 1.15
18 | U26A A42G | 1.02
19 | U26A A42U | 1.03
20 | U26A U81C | 0.74
21 | U26A U81A | 1.29
22 | G25A U46A | 1.42
23 | U26C C95U | 0.24
24 | U26C A67G | 1.16

Row | Variant | self-cleavage
25 | U26A A65U | 0.14
26 | U26A A65G | 0.16
27 | U26C C71U | 0.9
28 | A24G A31U | 1.37
29 | U26A G35A | 0.67
30 | U26A G35U | 1.14
31 | A24G A92G | 0.2
32 | A24G A92C | 0
33 | U26A C63U | 0.37
34 | G25A G27A | 1.03
35 | G25A U108C | 1.24
36 | U23C U112A | 1.37
37 | A24G A57C | 0
38 | G25A A124G | 0.63
39 | U26C A69G | 0.46
40 | U26C A69U | 0.11
41 | A24G A138U | 1.43
42 | A24G G144A | 1.35
43 | U26G A77G | 2.53
44 | A24G G74A | 0.93
45 | U26A C90U | 0.04
46 | A24G C63A | 0
47 | U26C C111A | 1.04
48 | U26A G93A | 0

Row | Variant | self-cleavage
49 | A24C A124G | 0.98
50 | G25A A92U | 0.25
51 | U26A G122A | 0.72
52 | G25A A64G | 0.27
53 | G25A A64U | 0.4
54 | U26A G70A | 0.11
55 | U26A A107U | 1.09
56 | U26A A107G | 1.06
57 | U26C A124U | 1.25
58 | A24U A94G | 0.47
59 | A24G U29C | 1.41
60 | U26A G72A | 0.94
61 | A24C U73A | 0.46
62 | A24G U47A | 1.44
63 | U26C U39A | 1.9
64 | U26C U39G | 0.65
65 | U26A A69G | 0.29
66 | U26A A69U | 0.08
67 | A24U U119G | 2.22
68 | A24U U87A | 0.11
69 | G25U A65G | 0.01
70 | U26C A129U | 1.24
71 | A24U A117C | 1.6
72 | A24U U62A | 0.03

Row | Variant | self-cleavage
73 | U26A U87G | 0.13
74 | U26A U87C | 0.15
75 | U26C U130C | 1.7
76 | U26C U130A | 1.35
77 | A24G G106A | 0.78
78 | G25C U119C | 1.58
79 | A24G A79U | 1.59
80 | A24G A79G | 0.95
81 | U23C U100C | 1.79
82 | U26A U109C | 0.95
83 | A24U G83A | 1.07
84 | G25U U39C | 0.47
85 | U26A A59U | 0.65
86 | U26C C116U | 1.48
87 | A24U A129U | 1.26
88 | U23G C90G | 0.03
89 | U26A G127U | 1.16
90 | U26A A57C | 0.02
91 | A24U U143A | 1.13
92 | U26G A78G | 1.31
93 | U26G A57G | 0.82
94 | U26C U62C | 0.1
95 | U26C U29C | 1.15
96 | G25A A67G | 0.5

Row | Variant | self-cleavage
97 | A24U U46A | 0.91
98 | A24G U134A | 0.99
99 | A24G U134C | 1.26
100 | G25C U91C | 0.97
101 | A24G G33A | 0.35
102 | U26C U102C | 1.22
103 | U26C U102A | 1.31
104 | U26C C118U | 1.05
105 | U26A A92G | 0.05
106 | G25A U47C | 0.54
107 | A24G A50G | 1.16
108 | U26C A136G | 1.42
109 | A24G U39G | 0.76
110 | A24G U39C | 1.11
111 | A24G G114C | 1.7
112 | A24C U134G | 1.02
113 | U26C A121U | 1.43
114 | U26C A121G | 1.64
115 | U26C G70A | 0.14
116 | U26A U45A | 0.84
117 | U26A U45C | 1.37
118 | A24U A140U | 2
119 | U26C G33A | 0.7
120 | U26C G33U | 1.01

Row | Variant | self-cleavage
121 | A24G A94G | 0.31
122 | A24G A94U | 0.49
123 | U23G U143C | 0
124 | A24G U26A | 0.84
125 | U26G A31U | 1.16
126 | A24U C110A | 1.1
127 | U26C G105U | 1.57
128 | U26C G114A | 1.22
129 | A24G U52C | 0.12
130 | A24G U87A | 0.03
131 | A24G U96G | 0
132 | A24G U96C | 0.31
133 | A24G U96A | 0.11
134 | A24C A142C | 1.13
135 | G25A U91C | 0
136 | U26C A140G | 1.19
137 | U26C A140C | 1.19
138 | A24G A124G | 1.06
139 | G25A G54C | 1.02
140 | A24U U47C | 1.57
141 | U26C U46A | 0
142 | U26C G122U | 1.05
143 | U26C G72A | 0.93
144 | U26C G72U | 1.02

Row | Variant | self-cleavage
145 | U26C G125U | 0.92
146 | U26C G125A | 1.61
147 | U26A U132C | 1.15
148 | U26A G53A | 1.44
149 | A24G A117U | 1.09
150 | A24U C145U | 1.4
151 | G25A U143A | 1.12
152 | U26C G88A | 0.05
153 | U26A A117U | 0.98
154 | A24G A141G | 1.22
155 | A24G G55A | 0.3
156 | A24G G55U | 0.26
157 | U26C G139A | 1.34
158 | A24U G122U | 1.33
159 | U23G A140G | 1.27
160 | A24G C146U | 1.61
161 | A24U A57G | 0.56
162 | A24G U46A | 0.9
163 | U26C U45C | 1.07
164 | U26C U45A | 0.99
165 | U26C A138G | 1.78
166 | U26C A138C | 1.28
167 | U26C A138U | 1.57
